Literature values as cited in patent US12233109B2, “Long-acting GLP-1r agonist as a therapy of neurological and neurodegenerative conditions” (The Johns Hopkins University, priority 2015, dated 2025).

Details: in vivo

Albiglutide: dipeptidyl peptidase-4-resistant glucagon-like peptide-1 dimer fused to human albumin
half-life: four to seven
